Test results: patent US20090022728A1 (RINAT NEUROSCIENCE, published 2009)
Positions count from the first letter of the chain named. In names and notes the source's numbering stands. Where no end group is shown, it is not given here.

T1: biotinylated Aβ22-37 peptide (also: biotinylated, site not given here)
T1 peptide: EDVGSNKGAIIGLMVG

B1: 6G Fab fragment (Fab, V domains shown)
VH: QVQLVQSGAEVKKPGASVKVSCKASGYTFTTYAIHWVRQAPGQGLEWMGFTSPYSGVSNYNQKFKGRVTMTRDTSTSTVYMELSSLRSEDTAVYYCARFDNYDRGYVRDYWGQGTLVTVS
VL: DIVMTQSPDSLAVSLGERATINCRASESVDNDRISFLNWYQQKPGQPPKLLIYAATKQGTGVPDRFSGSGSGTDFTLTISSLQAEDVAVYYCQQSKEFPWSFGGGTKVEIKR
notes: Fab from E. coli with human IgG2 CH1 (P01859) and human kappa constant domain (CAA09181)
B2: 6G heavy chain variant 9E (N101R) (antibody, V domains shown)
VH: B1 VH with N101R
VL: B1 VL
B3: 6G light chain variant 5H (E97R) (antibody, V domains shown)
VH: B1 VH
VL: B1 VL with E97R
B4: 6G light chain variant 7F (Q94K) (antibody, V domains shown)
VH: B1 VH
VL: B1 VL with Q94K
B5: 6G heavy chain variant 4B (R104F) (antibody, V domains shown)
VH: B1 VH with R104F
VL: B1 VL
B6: 6G light chain variant 6D (E97T) (antibody, V domains shown)
VH: B1 VH
VL: B1 VL with E97T
B7: 6G heavy chain variant 8H (N101H) (antibody, V domains shown)
VH: B1 VH with N101H
VL: B1 VL
B8: 6G heavy chain variant 6F (R104S) (antibody, V domains shown)
VH: B1 VH with R104S
VL: B1 VL
B9: 6G heavy chain variant 11D (Y102M) (antibody, V domains shown)
VH: B1 VH with Y102M
VL: B1 VL
B10: 6G light chain variant 6C (E97G) (antibody, V domains shown)
VH: B1 VH
VL: B1 VL with E97G
B11: 6G heavy chain variant 4D (R104Q) (antibody, V domains shown)
VH: B1 VH with R104Q
VL: B1 VL
B12: 6G light chain variant 10E (S95L) (antibody, V domains shown)
VH: B1 VH
VL: B1 VL with S95L
B13: 6G heavy chain variant 3C (D103G) (antibody, V domains shown)
VH: B1 VH with D103G
VL: B1 VL
B14: 6G heavy chain variant 10G (Y102I) (antibody, V domains shown)
VH: B1 VH with Y102I
VL: B1 VL
B15: 6G light chain variant 8G (E97V) (antibody, V domains shown)
VH: B1 VH
VL: B1 VL with E97V
B16: 6G light chain variant 3A (Q93P) (antibody, V domains shown)
VH: B1 VH
VL: B1 VL with Q93P
B17: 6G light chain variant 2H (Q93K) (antibody, V domains shown)
VH: B1 VH
VL: B1 VL with Q93K
B18: antibody 9TL (full monoclonal antibody) (antibody, human IgG2, kappa, V domains shown)
VH: QVQLVQSGAEVKKPGASVKVSCKASGYYTEAYYIHWVRQAPGQGLEWMGRIDPATGNTKYAPRLQDRVTMTRDTSTSTVYMELSSLRSEDTAVYYCASLYSLPVYWGQGTTVTVSS
VL: DVVMTQSPLSLPVTLGQPASISCKSSQSLLYSDAKTYLNWFQQRPGQSPRRLIYQISRLDPGVPDRFSGSGSGTDFTLKISRVEAEDVGVYYCLQGTHYPVLFGQGTRLEIKR
notes: human IgG2a constant region with A330P331 to S330S331; human kappa light chain; also called 9TL mAb

Legend:
[1] = biological target: T2, biotinylated Aβ1-42 peptide (biotinylated (N-biotinylated in Example 7)); assay: SPR, Fab over biotinylated peptide on streptavidin chip
T2 construct: captured on streptavidin chip; also called N-biotinylated Aβ1-42

[2] = biological target: T1, biotinylated Aβ22-37 peptide; assay: as above
[3] = biological target: T3, biotinylated Aβ1-40 peptide (biotinylated (N-biotinylated in Example 7)); assay: as above
T3 construct: captured on streptavidin (SA) chip; also called Biotinylated Aβ peptide 1-40; Aβ1-40 on SA chip

[4] = biological target: T4, Aβ1-42 peptide; assay: ELISA, nonbiotinylated peptide on plate
T4 construct: also called 1-42 (WT)
Experimental: (§1) ELISA was used for measuring binding of antibody 6G and variants to nonbiotinylated Aβ peptides. NUNC maxisorp plates were coated with 2.5 ug/ml of Aβ peptides in PBS pH 7.4 for more than 1 hour at 4° C. Plates were blocked with 1% BSA in PBS buffer pH 7.4. Primary antibody (from cell supernatants, serum containing anti-Aβ antibody, or purified full antibody or Fabs at desired dilution) was incubated with the immobilized Aβ peptides for 1 h at room temperature. After washing, the plates were incubated with secondary antibody, a HRP conjugated goat anti-human kappa chain antibody (MP Biomedicals, 55233) at 1:5000 dilution. After washing, bound secondary antibody was measured by adding TMB substrate (KPL, 50-76-02, 50-65-02). The HRP reaction was stopped by adding 1M phosphoric acid and absorbance at 450 nm was measured.
(§2) All amino acid substitutions of the variants shown in Table 8 are described relative to the sequence of 6G. Binding was determined by ELISA described above with nonbiotinylated Aβ₁₋₄₀ or Aβ₁₋₄₂ immobilized on the surface of an ELISA plate.

[5] = biological target: T5, Aβ1-40 peptide; assay: ELISA, nonbiotinylated peptide on plate
T5 construct: synthetic peptide, not biotinylated; also called 1-40 (WT); beta amyloid 1-40
Experimental: as §1, §2

[6] = biological target: T5, Aβ1-40 peptide; assay: SPR, mAb on CM5 chip, peptide flowed
Experimental: Affinities of 9TL monoclonal antibody were determined using the BIAcore3000™ surface plasmon resonance (SPR) system (BIAcore, INC, Piscaway N.J.). […] CM5 chips were activated with N-ethyl-N′-(3-dimethylaminopropyl)-carbodiimide hydrochloride (EDC) and N-hydroxysuccinimide (NHS) according to the supplier's instructions. Antibody 9TL or its variants was diluted into 10 mM sodium acetate pH 4.0 or 5.0 and injected over the activated chip at a concentration of 0.005 mg/mL. Using variable flow time across the individual chip channels, a range of antibody density was achieved: 1000-2000 or 2000-3000 response units (RU). The chip was blocked with ethanolamine. […] HBS-EP buffer (0.01M HEPES, pH 7.4, 0.15 M NaCl, 3 mM EDTA, 0.005% Surfactant P20) was used as running buffer for all the BIAcore assays. […] Kinetic association rates (kₒₙ) and dissociation rates (koff) were obtained simultaneously by fitting the data to a 1:1 Langmuir binding model (Karlsson, R. Roos, H. Fagerstam, L. Petersson, B. (1994). Methods Enzymology 6. 99-110) using the BIAevaluation program. Equilibrium dissociation constant (KD) values were calculated as koff/kₒₙ.

T2 sequence (peptide, as listed by the source): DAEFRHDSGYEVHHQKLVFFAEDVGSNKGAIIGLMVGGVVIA
T3 sequence (peptide, as listed by the source): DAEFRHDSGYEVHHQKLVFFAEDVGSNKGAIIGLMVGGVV

Binder | A450 ELISA [4] | A450 ELISA [5] | further results
B1 | – | – | Kd [1]: 80 nM; koff [1]: 0.0016 s⁻¹; kon [1]: 18000 M⁻¹ s⁻¹; Kd [2]: 11 nM; koff [2]: 0.0039 s⁻¹; kon [2]: 360000 M⁻¹ s⁻¹; Kd [3]: 2 nM; koff [3]: 0.0007 s⁻¹; kon [3]: 300000 M⁻¹ s⁻¹
B2 | 0.26 A450 | – | –
B3 | 0.85 A450 | 2.6 A450 | –
B4 | – | 0.12 A450 | –
B5 | 0.71 A450 | 2.48 A450 | –
B6 | 1.34 A450 | 2.41 A450 | –
B7 | 0.19 A450 | – | –
B8 | 0.62 A450 | 2.28 A450 | –
B9 | 0.24 A450 | 0.29 A450 | –
B10 | 0.05 A450 | 0.05 A450 | –
B11 | 1 A450 | 2.45 A450 | –
B12 | – | 0.08 A450 | –
B13 | 0.76 A450 | 2.3 A450 | –
B14 | 0.22 A450 | 0.63 A450 | –
B15 | 0.9 A450 | 2.6 A450 | –
B16 | 0.13 A450 | 0.08 A450 | –
B17 | 0.13 A450 | 0.07 A450 | –
B18 | – | – | Kd [6]: 0.9 nM; koff [6]: 0.000389 s⁻¹; kon [6]: 425000 M⁻¹ s⁻¹
